Results as given in patent publication US20240025992A1 (Janssen / Centocor, published 2024).
Each block holds one binder with its values, some of them ahead of it.

B2: DL3W34, human DLL4 ECD (Ser27-Pro524), C-10xHis (ligand)
chain: SGVFQLQLQEFINERGVLASGRPCEPGCRTFFRVCLKHFQAVVSPGPCTFGTVSTPVLGTNSFAVRDDSSGGGRNPLQLPFNFTWPGTFSLIIEAWHAPGDDLRPEALPPDALISKIAIQGSLAVGQNWLLDEQTSTLTRLRYSYRVICSDNYYGDNCSRLCKKRNDHFGHYVCQPDGNLSCLPGWTGEYCQQPICLSGCHEQNGYCSKPAECLCRPGWQGRLCNECIPHNGCRHGTCSTPWQCTCDEGWGGLFCDQDLNYCTHHSPCKNGATCSNSGQRSYTCTCRPGYTGVDCELELSECDSNPCRNGGSCKDQEDGYHCLCPPGYYGLHCEHSTLSCADSPCFNGGSCRERNQGANYACECPPNFTGSNCEKKVDRCTSNPCANGGQCLNRGPSRMCRCRPGFTGTYCELHVSDCARNPCAHGGTCHDLENGLMCTCPAGFSGRRCEVRTSIDACASSPCFNRATCYTDLSTDTFVCNCPYGFVGSRCEFPVGLPHHHHHHHHHH
notes: also called huDLL4; TPP0000494661
B3: DL3W35, extracellular domain of human DLL3 linked to a C-terminal 6xHis-Tag and a linker (ligand)
chain: AGVFELQIHSFGPGPGPGAPRSPCSARLPCRLFFRVCLKPGLSEEAAESPCALGAALSARGPVYTEQPGAPAPDLPLPDGLLQVPFRDAWPGTFSFIIETWREELGDQIGGPAWSLLARVAGRRRLAAGGPWARDIQRAGAWELRFSYRARCEPPAVGTACTRLCRPRSAPSRCGPGLRPCAPLEDECEAPLVCRAGCSPEHGFCEQPGECRCLEGWTGPLCTVPVSTSSCLSPRGPSSATTGCLVPGPGPCDGNPCANGGSCSETPRSFECTCPRGFYGLRCEVSGVTCADGPCFNGGLCVGGADPDSAYICHCPPGFQGSNCEKRVDRCSLQPCRNGGLCLDLGHALRCRCRAGFAGPRCEHDLDDCAGRACANGGTCVEGGGAHRCSCALGFGGRDCRERADPCAARPCAHGGRCYAHFSGLVCACAPGYMGARCEFPVHPDGASALPAAHPGGGSGGGSGGGSHHHHHH
notes: also called human DLL3 ECD; huDLL3

Assays:
[1] = molecular target: B3; assay: SPR (ProteOn), antibody captured by anti-Fc, DLL3 (DL3W35) titrated
[2] = molecular target: B2; assay: SPR (ProteOn), antibody captured by anti-Fc; DLL4 at 100 nM and 1000 nM
[3] = molecular target: T1, DL3W36, human DLL3 EGF6 domain+C-term ECD sequence, HSA Fusion and C-term 6 His tag (human); assay: MSD plate binding assay on coated DLL3 domain-HSA fusions
T1 construct: Fusion with the C34S variant of human serum albumin, plus 6xHis; also called EGF-6 and C-terminal fusion domain; EGF6 + Cterm
T1 sequence (chain, as listed by the source limits assumed): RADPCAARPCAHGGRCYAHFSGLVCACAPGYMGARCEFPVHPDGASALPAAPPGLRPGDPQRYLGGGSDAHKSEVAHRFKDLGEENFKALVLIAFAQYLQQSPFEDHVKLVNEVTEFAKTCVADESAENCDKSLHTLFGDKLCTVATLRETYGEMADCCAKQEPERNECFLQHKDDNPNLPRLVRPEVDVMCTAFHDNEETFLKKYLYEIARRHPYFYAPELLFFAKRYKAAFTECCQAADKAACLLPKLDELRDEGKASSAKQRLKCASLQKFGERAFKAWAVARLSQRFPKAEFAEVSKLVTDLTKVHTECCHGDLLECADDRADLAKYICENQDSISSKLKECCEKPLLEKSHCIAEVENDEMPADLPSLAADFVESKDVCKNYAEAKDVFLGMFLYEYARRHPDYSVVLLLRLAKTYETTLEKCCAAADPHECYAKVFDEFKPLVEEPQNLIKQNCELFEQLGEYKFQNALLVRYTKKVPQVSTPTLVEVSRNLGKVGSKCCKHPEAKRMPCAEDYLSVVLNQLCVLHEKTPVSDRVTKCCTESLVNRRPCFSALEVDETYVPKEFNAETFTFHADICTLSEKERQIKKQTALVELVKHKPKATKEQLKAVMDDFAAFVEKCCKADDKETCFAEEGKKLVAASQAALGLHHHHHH

[4] = molecular target: T2, DL3W33, Recombinant Human DLL1 ECD (Ser22-Gly540), -DI-C-6xHis (human, UniProt O00548 22-540); assay: SPR (ProteOn), antibody captured by anti-Fc; DLL1 at 100 nM and 1000 nM
T2 construct: also called huDLL1; TPP000049465
T2 sequence: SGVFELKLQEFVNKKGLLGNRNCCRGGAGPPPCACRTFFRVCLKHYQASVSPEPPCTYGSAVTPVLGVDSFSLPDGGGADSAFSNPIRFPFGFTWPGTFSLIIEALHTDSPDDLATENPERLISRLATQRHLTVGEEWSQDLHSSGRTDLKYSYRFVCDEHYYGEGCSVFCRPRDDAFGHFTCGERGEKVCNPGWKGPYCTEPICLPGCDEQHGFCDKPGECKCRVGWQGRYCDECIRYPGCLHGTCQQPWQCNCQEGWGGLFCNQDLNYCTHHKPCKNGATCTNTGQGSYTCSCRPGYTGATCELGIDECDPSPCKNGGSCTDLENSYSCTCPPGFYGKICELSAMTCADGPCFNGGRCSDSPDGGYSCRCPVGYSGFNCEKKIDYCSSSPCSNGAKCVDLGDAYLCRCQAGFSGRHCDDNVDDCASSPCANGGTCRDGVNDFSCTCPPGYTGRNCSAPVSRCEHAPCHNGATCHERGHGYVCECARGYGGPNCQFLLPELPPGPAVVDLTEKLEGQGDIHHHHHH

DL3B574 [5] = molecular target: T3, DL3B574; assay: SPR (ProteOn), antibody captured by anti-Fc; DLL4 at 100 nM and 1000 nM
T3 construct: also called DL3B450 scFv-Fc; not shown: wild-type IgG1 Fc domain

DL3B574 [6] = molecular target: T3, DL3B574; assay: SPR (ProteOn), antibody captured by anti-Fc, DLL3 (DL3W35) titrated
[7] = molecular target: T4, CD3W147, homodimeric CD3εγ-Fc (biotinylated); assay: ELISA, biotinylated CD3W147 immobilized, scFv in E. coli supernatant
T4 construct: also called recombinant CD3; biotinylated CD3W147
T4 chain: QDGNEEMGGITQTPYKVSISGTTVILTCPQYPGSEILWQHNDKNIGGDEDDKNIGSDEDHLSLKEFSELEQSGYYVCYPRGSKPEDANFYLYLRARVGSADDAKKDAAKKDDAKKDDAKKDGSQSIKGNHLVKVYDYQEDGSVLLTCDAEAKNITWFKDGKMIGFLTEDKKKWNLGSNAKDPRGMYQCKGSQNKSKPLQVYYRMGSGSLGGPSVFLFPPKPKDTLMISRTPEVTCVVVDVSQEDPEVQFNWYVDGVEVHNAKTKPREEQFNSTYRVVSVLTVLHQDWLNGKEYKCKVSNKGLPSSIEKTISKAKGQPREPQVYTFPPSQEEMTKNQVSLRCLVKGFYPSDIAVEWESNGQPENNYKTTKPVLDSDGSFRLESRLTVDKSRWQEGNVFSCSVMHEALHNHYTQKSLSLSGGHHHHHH

[8] = molecular target: T5, human CD3 (CD3 epsilon as part of the T cell receptor complex) on cells (human, UniProt P07766 23-207); assay: flow cytometry on human T cells (sheet title 'T cells', GEO Mean against concentration; assay as told in p-1138)
T5 construct: also called CD3 on Jurkat cells; CD3 on human pan T cells
T5 sequence (P07766 23-207 limits assumed, one chain of several): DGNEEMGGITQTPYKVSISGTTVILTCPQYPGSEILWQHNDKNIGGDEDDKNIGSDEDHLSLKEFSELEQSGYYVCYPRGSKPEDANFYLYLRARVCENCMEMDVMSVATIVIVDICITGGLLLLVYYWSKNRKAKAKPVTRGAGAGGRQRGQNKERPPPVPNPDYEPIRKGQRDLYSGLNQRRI

[9] = molecular target: T6, recombinant human DLL3 (Example 9, construct not named) (human, UniProt Q9NYJ7 27-492, limits assumed); assay: SPR (Biacore T200), antibody captured by goat anti-Fc on a C1 chip, DLL3 titrated
T6 construct: also called DLL3 antigen
T6 sequence: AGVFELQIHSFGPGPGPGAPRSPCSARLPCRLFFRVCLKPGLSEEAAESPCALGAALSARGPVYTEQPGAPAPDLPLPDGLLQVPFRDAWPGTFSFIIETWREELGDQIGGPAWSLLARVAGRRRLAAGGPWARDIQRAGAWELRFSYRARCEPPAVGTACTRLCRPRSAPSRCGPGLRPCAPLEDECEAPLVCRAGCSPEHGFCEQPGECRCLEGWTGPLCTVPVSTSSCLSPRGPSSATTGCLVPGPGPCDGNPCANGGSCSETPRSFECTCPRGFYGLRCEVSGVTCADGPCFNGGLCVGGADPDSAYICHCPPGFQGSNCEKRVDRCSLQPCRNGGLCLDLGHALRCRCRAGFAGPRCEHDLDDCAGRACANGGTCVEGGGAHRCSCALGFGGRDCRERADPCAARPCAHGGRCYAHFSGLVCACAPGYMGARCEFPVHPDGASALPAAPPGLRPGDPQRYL

Kd [1]: 0.31 nM
binding result [2]: no binding (tested: 1000 nM)
binding result [3]: binds
binding result [4]: no binding (tested: 1000 nM)
B1: DL3B575 (Fc fusion)
scFv: DIVMTQSPLSSPVTLGQPASISCRSSQSLVHSDGNTYLNWLQQRPGQPPRLLIYQISNPFSGVPDRFSGSGAGTDFTLKISRVEAEDVGVYYCMQATQFPHTFGPGTKVEIKGGSEGKSSGSGSESKSTGGSQVQLVQSGAEVKKPGSSVKVSCKASGGTLSSYVISWVRQAPGQGLEWMGGIIPIFGTANYAQKFQDRVTITADKSTNTAYMELTSLTSEDTAVYYCARDPFSDLWGRGTMVTVSS
notes: also called DL3B461 scFv-Fc; not shown: wild-type IgG1 Fc domain

Binder: B2
binding result (DL3B574 [5]): no binding (tested: 1000 nM)

Binder: B3
Kd (DL3B574 [6]): 2.37 nM

binding result [7]: binds
B4: CD3W245-HL-E.c. (scFv)
scFv: EVQLVESGGGLVKPGGSLRLSCAASGFTFSRYNMNWVRQAPGKGLEWVSSISTSSNYIYYADSVKGRFTFSRDNAKNSLDLQMSGLRAEDTAIYYCTRGWGPFDYWGQGTLVTVSSGTEGKSSGSGSESKSTDIQMTQSPSSLSASVGDRVTITCRARQSIGTAIHWYQQKPGKAPKLLIKYASESISGVPSRFSGSGSGTDFTLTISSLQPEDFATYYCQQSGSWPYTFGQGTKLEIKGPGGQHHHHHHGAYPYDVPDYAS
notes: Tested as E. coli supernatant; also called CD3W245 scFv-HL; CD3W245 scFv HL expressed in E. coli

binding result [8]: binds
Kd [9]: 0.033 nM
B5: D3C3B80 (bispecific antibody, human IgG1, lambda, L234A L235A)
scFv: DIQMTQSPSSLSASVGDRVTITCRASQGISNYLAWFQQKPGKAPKSLIYAASSLQSGVPSKFSGSGSGTDFTLTISSLQPEDFATYYCQQYNSYPYTFGQGTKLEIKGGSEGKSSGSGSESKSTGGSQVQLVQSGAEVKKPGASVKVSCKASGQTFTNYYIHWVRQAPGQGLEWMGIINPSGGSTSYAQKLQGRMTMTRDTSTSTVYMELSSLRSEDTAVYFCARQGPFIGDAFDIWGQGTTVTVSSEPKSSDKTHTCPPCPAPEAAGGPSVFLFPPKPKDTLMISRTPEVTCVVVSVSHEDPEVKFNWYVDGVEVHNAKTKPREEQYNSTYRVVSVLTVLHQDWLNGKEYKCKVSNKALPAPIEKTISKAKGQPREPQVYVLPPSREEMTKNQVSLLCLVKGFYPSDIAVEWESNGQPENNYLTWPPVLDSDGSFFLYSKLTVDKSRWQQGNVFSCSVMHEALHNHYTQKSLSLSPGK
heavy: QVQLQQSGPRLVRPSQTLSLTCAISGDSVFNNNAAWSWIRQSPSRGLEWLGRTYYRSKWLYDYAVSVKSRITVNPDTSRNQFTLQLNSVTPEDTALYYCARGYSSSFDYWGQGTLVTVSSASTKGPSVFPLAPSSKSTSGGTAALGCLVKDYFPEPVTVSWNSGALTSGVHTFPAVLQSSGLYSLSSVVTVPSSSLGTQTYICNVNHKPSNTKVDKKVEPKSCDKTHTCPPCPAPEAAGGPSVFLFPPKPKDTLMISRTPEVTCVVVSVSHEDPEVKFNWYVDGVEVHNAKTKPREEQYNSTYRVVSVLTVLHQDWLNGKEYKCKVSNKALPAPIEKTISKAKGQPREPQVYVYPPSREEMTKNQVSLTCLVKGFYPSDIAVEWESNGQPENNYKTTPPVLDSDGSFALVSKLTVDKSRWQQGNVFSCSVMHEALHNHYTQKSLSLSPGK
light: QSALTQPASVSGSPGQSITISCTGTSSNIGTYKFVSWYQQHPDKAPKVLLYEVSKRPSGVSSRFSGSKSGNTASLTISGLQAEDQADYHCVSYAGSGTLLFGGGTKLTVLGQPKAAPSVTLFPPSSEELQANKATLVCLISDFYPGAVTVAWKADSSPVKAGVETTTPSKQSNNKYAASSYLSLTPEQWKSHRSYSCQVTHEGSTVEKTVAPTECS
notes: DLL3 arm: DL3B279 variant LH-scFv-Fc (ZW); CD3 arm: CD3B376-K477-Fab-Fc; also called CD3B376-Fab
